# Results reported in patent US20100129344A1 (published 2010).
# B1: Recombinant phosphorylated IGFBP-1 (human), intact (other, UniProt P08833 26-259, looked up)
# chain: APWQCAPCSAEKLALCPPVSASCSEVTRSAGCGCCPMCALPLGAACGVATARCARGLSCRALPGEQQPLHALTRGQGACVQESDASAPHAAEAGSPESPESTEITEEELLDNFHLMAPSEEDHSILWDAISTYDGSKALHVTNIKKWKEPCRIELYRVVESLAKAQETSGEEISKFYLPNCNKNGFYHSRQCETSMDGEAGLCWCVYPWNGKRIPGSPEIRGDPNCQIYFNVQN
# modifications: phosphorylated; the sites were not determined here (the filing names Ser101, Ser119, Ser169 as sites for phosphorylation)
# notes: mature; Analyte in the BIAcore runs and substrate in the protease assays; also called pIGFBP-1; recombinant pIGFBP-1
# Assays:
# IGF-II (human) [1] = target: T1, IGF-II (human) (human, UniProt P01344 25-91); assay: BIAcore, IGF-II on chip against IGF-I on chip, 400 nM
# T1 construct: also called radioiodinated IGF-II
# Procedure: (§1) Instrument and reagents (buffers, chemicals for activating and deactivated) were purchased from BIAcore (Uppsala, Sweden). IGF-I, IGF-II and des(1-3)IGF-I were immobilized on the sensor chip by amine coupling and deactivated with 0.1M ethanolamine. A reference flow cell was also prepared to correct for background and bulk refractive index contribution. After equilibration buffer to achieve a stable baseline, binding experiments was at 22 C in 2 separate experiments with the samples injected in random order. 40 μl of each sample was injected over the sensor surface at a rate of 10 μl/min (association period), followed by a 6 min wash with buffer (dissociation period). The sensor surface was regenerated with 20 μl of 100 mM HCl and washed for 6 min before the next sample. We used a 1:1 Langmuir binding interaction model for kinetic analysis using the BIAcore software and GraphPad Prism (GraphPad Software Inc, San Diego, Calif.).
# The interaction of proteolysed IGFBP-1 with IGF-I and IGF-II biosensor surfaces was analysed (BIAcore). […] The kinetic analyses of the rates of association (over 21-120 s, ks) and dissociation (over 261-360 s, kd) for the results shown in FIGS. 12A and 12B are summarized in Table 2. […] The rate of dissociation further increased to more than 7-fold at the 4-h time point. […]
# IGF-II (human) [2] = target: T1, IGF-II (human); assay: cell-based or functional assay
# IGF-II (human) [3] = target: T1, IGF-II (human); assay: BIAcore, IGF-II on chip, 200 nM (the reference itself)
# Procedure: as §1
# (§2) The interaction of proteolysed IGFBP-1 with IGF-I and IGF-II biosensor surfaces was analysed (BIAcore). In FIG. 12 the mean biosensorgrams for the interaction of 200 nM phosphorylated IGFBP-1 intact are shown, and after 2-h and 4-h incubations with partially purified azurocidin, with immobilized IGF-I (FIG. 12A) and IGF-II (FIG. 12B). […]
# [4] = target: T2, Recombinant IGF-I (human) (human, UniProt P05019 49-118); assay: BIAcore, IGF-I on chip, 200 nM (the reference itself)
# T2 construct: also called IGF-1; full length IGF-I
# Procedure: as §1, §2
# [5] = target: T2, Recombinant IGF-I (human); assay: BIAcore, IGF-I on chip, 400 nM
# Procedure: as §1, §2
# des(1-3)IGF-I = target: T3, des(1-3)IGF-I (human, UniProt P05019 52-118); assay: BIAcore, des(1-3)IGF-I amine-coupled on chip
# T3 construct: domain: des(1-3)IGF-I (mature IGF-I without its first three residues)
# Procedure: Recombinant pIGFBP-1 was analyzed across a des(1-3) IGF-I biosensor surfaces with a concentration range of 50, 100, 200, 400 nM, at a flow rate of 10 μl/min. The mean sensorgrams are shown for 400 nM IGFBP-1 (intact, n=3) and 200 nM IGFBP-1, intact (0 h, n=4) and after 2-h (n=5) and 4-h (n=3) incubations with partially purified azurocidin in a protease:substrate ratio of 1:3 500 for 2 h at 37 C.
# as §1, with “We used a 1:1 Langmuir binding interaction model for kinetic analysis using the BIAcore software and GraphPad Prism (GraphPad Software Inc, San Diego, Calif.).” left out
# The interaction of IGFBP-1 with des(1-3)IGF-I on the biosensor surface was also determined. […]
# IGF-II (human) [6] = target: T1, IGF-II (human); assay: BIAcore, IGF-II on chip, 400 nM
# Procedure: The sensor surface was regenerated with 20 μl of 100 mM HCl and washed for 6 min before the next sample. We used a 1:1 Langmuir binding interaction model for kinetic analysis using the BIAcore software and GraphPad Prism (GraphPad Software Inc, San Diego, Calif.).
# The interaction of proteolysed IGFBP-1 with IGF-I and IGF-II biosensor surfaces was analysed (BIAcore). […] The kinetic analyses of the rates of association (over 21-120 s, ks) and dissociation (over 261-360 s, kd) for the results shown in FIGS. 12A and 12B are summarized in Table 2. […] The rate of dissociation further increased to more than 7-fold at the 4-h time point. The rate of dissociation of IGFBP-1 from IGF-II was greater than twice that from IGF-I, and proteolysis had no effect on this relationship.
# TABLE 2 Kinetic analysis of interactions of intact and proteolysed phosphorylated IGFBP-1 with IGF biosensor surfaces The kinetic data shown in […] were analysed using the 1:1 Langmuir interaction model. IGFBP-I was injected either intact, or after 2- or 4-proteolysis by azurocidin, over IGF-I and IGF-II biosensor surfaces.
# IGF-II (human) [7] = target: T1, IGF-II (human); assay: BIAcore, IGF-II on chip against IGF-I on chip, 200 nM
# Procedure: as §1, §2
# T1 sequence (P01344 25-91 limits assumed): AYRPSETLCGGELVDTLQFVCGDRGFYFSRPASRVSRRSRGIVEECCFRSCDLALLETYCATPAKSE
# T2 sequence (P05019 49-118 limits assumed): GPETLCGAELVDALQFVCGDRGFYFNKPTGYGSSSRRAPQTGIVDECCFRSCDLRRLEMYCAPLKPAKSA
# T3 sequence (P05019 52-118 limits assumed): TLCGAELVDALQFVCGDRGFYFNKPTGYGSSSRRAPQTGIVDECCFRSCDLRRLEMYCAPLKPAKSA
binder,measurement,setting,value
B1,kd rel to IGF-I,IGF-II (human) [1],2.33 ratio
same,ks rel to IGF-I,IGF-II (human) [1],1.01 ratio
same,3H-thymidine incorporation in MCF-7 cells stimulated by IGF-II 10 ng/ml (2-fold without IGFBP-1),IGF-II (human) [2],1.5 fold
same,rel kd (relative to 200 nM intact pIGFBP-1),IGF-II (human) [3],1 ratio
same,rel ks (relative to 200 nM intact pIGFBP-1),IGF-II (human) [3],1 ratio
same,rel kd (relative to 200 nM intact pIGFBP-1),[4],1 ratio
same,rel ks (relative to 200 nM intact pIGFBP-1),[4],1 ratio
same,rel kd (relative to 200 nM intact pIGFBP-1),[5],1 ratio
same,rel ks (relative to 200 nM intact pIGFBP-1),[5],1.91 ratio
same,fold lower biosensor response than with full length IGF-I,des(1-3)IGF-I,10 fold less
same,rel kd (relative to 200 nM intact pIGFBP-1),IGF-II (human) [6],0.97 ratio
same,rel ks (relative to 200 nM intact pIGFBP-1),IGF-II (human) [6],1.86 ratio
same,kd rel to IGF-I,IGF-II (human) [7],2.41 ratio
same,ks rel to IGF-I,IGF-II (human) [7],1.02 ratio
